The source of these data is patent US7217694B2, “Inhibitors of IAPP fibril formation and uses thereof” (The Governing Counsel of the University of Toronto, priority 2000, dated 2007).

In experiment [1] the target is T1, hIAPP 1–37 (Homo sapiens, UniProt P10997).
T1 construct: Synthetic human IAPP (1–37) was purchased from BACHEM; purchased BACHEM (Torrence, Calif.); host or cells: chemical synthesis
T1 sequence (P10997 34-70): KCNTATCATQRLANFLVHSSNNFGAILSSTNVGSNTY
As to the kind of experiment: Circular dichroism (CD) of IAPP conformational change, random coil to β-sheet. Type of experiment: biochemical. The conditions noted are these: for effect on IAPP β-sheet formation / precipitation (CD): pH 6.5; for inhibition of IAPP β-sheet formation / fibril formation, overall statement (CD): molar ratio not stated; for effect on initial random structure of IAPP (CD) / conformational change of IAPP (CD): time 0; for effect on initial random structure of IAPP (CD): 1:10 or 1:20 molar ratio; for effect on IAPP conformation (CD), peptides from the 8–20 region: 10-fold molar excess; for effect on IAPP conformation (CD): higher molar ratios / higher concentrations; for inhibitory activity from the circular dichroism results, peptides from the 8–20 region (summary): FIGS. 9A to 16B; for description of activity on IAPP conformation (CD), peptides from the 8–20 region: concentration not given. The text has this: (§1) FIG. 1 illustrates the sequence of the amyloid-β (Aβ) peptide and its proposed structural domains. A peptide-based approach similar to that used for Aβ (Tjernberg, et al, J Biol Chem 272:12601–12605, 1997) has been used for targeting two key domains in IAPP initially ranging from the 8–20 and 20–29 sequences as shown in FIG. 2. These peptides, as has been shown for Aβ peptides, are able to bind to the full-length IAPP peptide and alter fibrillogenesis. The peptides disrupt fibrillogenesis by disrupting the folding into the amyloidogenic β-sheet conformation, disrupting protofilament interactions, and/or interfering with side chain interactions within the folded IAPP, which are necessary for aggregation and fibril formation. The peptides that have been examined (shown in FIG. 2) were small, synthetic hexapeptides that correspond to the principal sequence domains of IAPP. […] The in vitro assays included: Circular Dichroism (CD), to look at changes in folding of the amyloidogenic β-sheet; negative stain electron microscopy (EM) to examine changes in fibril morphology and relative density; and ThT fluorescence assay which provides a quantitative assessment of fibril formation.
Synthetic human IAPP (1–37) was purchased from BACHEM (Torrence, Calif.), synthetic peptides spanning the region from IAPP 8 to 20 and 19–31 (FIG. 3) were synthesized by the Peptide Synthesis Laboratory at the University of Toronto using standard FMOC (Fluoroenylmethoxycarbonyl) based solid phase peptide synthesis methodology. The peptides were purified by reverse phase HPLC using water/acetonitrile mixtures buffered with 0. 1% trifluoroacetic acid, on a POROS 20R2 column. The synthetic peptides were solubilized in […] (1 mg/ml), filtered (0.2 μm), aliquotted and lyophilized (Higham, C E., et al., FEBS Lett. 470: 55–60, 2000). Aliquots were reconstituted as required in 20 mM sodium acetate buffer pH 6.5.
CD was used to measure the peptide conformational changes associated with fibril formation. CD experiments were carried out at room temperature, and spectra (average of 5 scans) were collected using a Jasco J720 spectropolarimeter and quartz cuvettes with a path length of 1 mm. […]
A general note: Circular dichroism is widely used to follow secondary structure.

Experiment [2] has as its target T1, hIAPP 1–37. As to the kind of experiment: Negative stain electron microscopy of IAPP fibril morphology and density. Type of experiment: biochemical. As to conditions: for effect on IAPP fibril morphology / density / aggregation (EM): molar ratio not stated.
Source text: as §1
TEM was used for structural analysis of in vitro assembled fibrils. Aliquots (4 μl) were applied to pioloform and carbon coated grids. The samples were incubated on the grids for 3 minutes at room temperature, excess material blotted off and stained with 1% phosphotungstic acid (PTA). Excess PTA was blotted off and the sample was left to air dry. All samples were examined using a Hitachi 7000 electron microscope with an accelerating voltage of 75 kV.
In preliminary work the series of peptides were synthesized from the 20–29 domain and examined, via CD, EM and ThT fluorescence, at two molar ratios (1:10 and 1:20) in comparison to the full-length IAPP residues 1–37. The following data (FIGS. 5A to 5D, 6A to 6C and 7A to 7B) were obtained.

For experiment [3], the target named is T2, Synthetic human IAPP (1-37) (human, not fully specified).
T2 peptide: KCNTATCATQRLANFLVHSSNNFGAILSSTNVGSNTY
As to the kind of experiment: cell-based or functional assay.

Entries after “also recorded” stand apart in the source; their conditions may differ.

SSNNFG: in the experiment with hIAPP 1–37 [1] (1:1 molar ratio with IAPP), the “hIAPP conformation by CD” value is on record as “maintained hIAPP (1–37) in a random coil conformation”. Besides, the “effect on IAPP β-sheet formation / precipitation (CD)” value in the experiment with hIAPP 1–37 [1] (48-hour incubation) was “capable of maintaining IAPP in a random conformation”. In addition, in the experiment with hIAPP 1–37 [1], the “inhibition of IAPP β-sheet formation / fibril formation, overall statement (CD)” value is “strong inhibitors of β-sheet formation; also recorded: effective inhibitors even when used at low concentrations” and the “effect on initial random structure of IAPP (CD)” value (shortened to “effect … of IAPP (CD)”) is recorded as “had no effect on the initial random structure of IAPP”. Moreover, the “effect on IAPP fibril morphology / density / aggregation (EM)” value with hIAPP 1–37 [2] is “typical high density of IAPP fibrils was not seen; also recorded: absence of fibrillar aggregates which could act as seeds”.
Take TQRLAN [FRA-013]: in the experiment with hIAPP 1–37 [1], the “effect on IAPP conformation (CD), peptides from the 8–20 region” value is “enhanced formation of the beta-sheet conformation” and the “effect on IAPP conformation (CD)” value was “possibility of a random coil”. Moreover, the “effect on IAPP fibril morphology / density / aggregation (EM)” value in the experiment with hIAPP 1–37 [2] is reported as “significantly accelerated aggregation”.
Turning to NFLVHS [FRA-017], in the experiment with hIAPP 1–37 [1], the “inhibitory activity from the circular dichroism results, peptides from the 8–20 region (summary)” value (“inhibitory activity” for short) is reported as “have inhibitory activity” and the “description of activity on IAPP conformation (CD), peptides from the 8–20 region” value (from here on “description of activity”) is reported as “limited inhibitory activity”. In addition, the “effect on IAPP fibril morphology / density / aggregation (EM)” value in the experiment with hIAPP 1–37 [2] was “only limited effects on the density and morphology of the fibrils”.
For GAILSST, in the experiment with hIAPP 1–37 [1], the “effect on IAPP conformation (CD)” value is reported as “prevented the conformational change to β-sheet”.
Consider RLANFL [FRA-015], for which the “effect on IAPP fibril morphology / density / aggregation (EM)” value with hIAPP 1–37 [2] is “enhanced lateral aggregation (ribbon structures); also recorded: significantly accelerated aggregation”.
Take ILSSTN: the “effect on IAPP β-sheet formation / precipitation (CD)” value with hIAPP 1–37 [1] (48-hour incubation) is given as “little effect on the ability of hIAPP (1–37) to form a β-sheet”. The “effect … of IAPP (CD)” value with hIAPP 1–37 [1] was “had no effect on the initial random structure of IAPP”.
With ATQRLA [FRA-012], in the experiment with hIAPP 1–37 [1], the “inhibitory activity” value is recorded as “have inhibitory activity” and the “effect on IAPP conformation (CD)” value is recorded as “limited inhibition”. Further, in the experiment with hIAPP 1–37 [2], the “effect on IAPP fibril morphology / density / aggregation (EM)” value is “only limited effects on the density and morphology of the fibrils”.
In the case of LANFLV [FRA-016], in the experiment with hIAPP 1–37 [1], the “effect on IAPP conformation (CD), peptides from the 8–20 region” value is on record as “relatively good inhibition”; the “inhibitory activity” value is “have inhibitory activity”; the “effect on IAPP conformation (CD)” value was “better activity”. For the same molecule, the “effect on IAPP fibrils (EM)” value in the experiment with hIAPP 1–37 [2] (10-fold excess) is recorded as “disruption of normal fibrils”. The “effect on IAPP fibrils (EM)” value in the experiment with hIAPP 1–37 [2] (20 fold molar excess) was “Some fibrils were also seen”.
With FLVHSS [FRA-018], in the experiment with hIAPP 1–37 [1], the “inhibitory activity” value is “have inhibitory activity” and the “description of activity” value is listed as “some modest inhibition”.
For the molecule SSNFGA, the “inhibition of normal IAPP fibrillar aggregation (EM)” value with hIAPP 1–37 [2] (reduced inhibitor concentrations) is given as “effective inhibitors of normal IAPP fibrillar aggregation”.
With QRLANF [FRA-014], the “effect on IAPP fibril morphology / density / aggregation (EM)” value with hIAPP 1–37 [2] is reported as “significantly accelerated aggregation”.
In the case of ANFLVH [FRA-019], in the experiment with hIAPP 1–37 [1], the “inhibitory activity” value is “have inhibitory activity” and the “description of activity” value was “maintained a random coil”. Further, the “effect on IAPP fibril morphology / density / aggregation (EM)” value in the experiment with hIAPP 1–37 [2] was “lower density of IAPP fibrils”.
Take NNFGAI: the “effect on IAPP β-sheet formation / precipitation (CD)” value in the experiment with hIAPP 1–37 [1] (48-hour incubation) was “little effect on the ability of hIAPP (1–37) to form a β-sheet”. For the same molecule, the “effect on IAPP aggregation or precipitation (CD)” value with hIAPP 1–37 [1] (48-hour incubation, 10 fold molar excess) is given as “no effect on aggregation or precipitation of hIAPP”. Further, in the experiment with hIAPP 1–37 [1] (48-hour incubation, 20-fold molar excess), the “IAPP conformation (CD)” value is on record as “maintain IAPP in a random conformation”. Also, in the experiment with hIAPP 1–37 [1], the “inhibition of IAPP β-sheet formation / fibril formation, overall statement (CD)” value is “little, if any, inhibitory properties” and the “effect … of IAPP (CD)” value is listed as “had no effect on the initial random structure of IAPP”. Further, in the experiment with hIAPP 1–37 [2], the “effect on IAPP fibril morphology / density / aggregation (EM)” value is “had no effect on the morphology of IAPP fibrillar aggregates”.
With NFGAIL, the “inhibition of IAPP β-sheet formation / fibril formation, overall statement (CD)” value with hIAPP 1–37 [1] is listed as “not inhibitory; also recorded: may actually enhance IAPP fibril formation”. Besides, the “conformational change of IAPP (CD)” value with hIAPP 1–37 [1] (10 fold excess) is given as “a conformational change at time 0”; in the experiment with hIAPP 1–37 [1] (20 fold excess) it was “conformational change from random coil to β-sheet”. The “effect on IAPP fibrils (EM)” value in the experiment with hIAPP 1–37 [2] (20 fold molar excess) is reported as “appeared to enhance IAPP aggregation”. For the same molecule, the “effect on IAPP fibril morphology / density / aggregation (EM)” value with hIAPP 1–37 [2] was “slightly enhanced fibril formation; also recorded: had no effect on the morphology of IAPP fibrillar aggregates; also recorded: immediate increase in the development of fibrils”.
AILSST: the “hIAPP conformation by CD” value with hIAPP 1–37 [1] (1:1 molar ratio with IAPP) is “no longer inhibitory”. Moreover, in the experiment with hIAPP 1–37 [1] (1:10 or 1:20 molar ratio (10- or 20-fold molar excess)), the “inhibition of IAPP β-sheet transition and aggregation (CD)” value is “very strong inhibitors of IAPP β-sheet transition”. The “hIAPP conformation by CD” value in the experiment with hIAPP 1–37 [1] (5-fold molar excess) was “able to maintain hIAPP as a random coil peptide”. Also, in the experiment with hIAPP 1–37 [1] (5-fold molar excess (1:5) or 1:1 molar ratio), the “inhibition of IAPP β-sheet conformational change at reduced concentrations (CD)” value was “capable of maintaining the majority of hIAPP in a random coil conformation”. Further, in the experiment with hIAPP 1–37 [1] (48-hour incubation), the “effect on IAPP β-sheet formation / precipitation (CD)” value is “able to prevent the attenuation of signal due to precipitation of IAPP”. In the experiment with hIAPP 1–37 [1], the “effect on IAPP conformation (CD)” value is “prevented the conformational change to β-sheet”; the “inhibition of IAPP β-sheet formation / fibril formation, overall statement (CD)” value is listed as “greatest inhibition of IAPP fibril formation”; the “effect … of IAPP (CD)” value was “had no effect on the initial random structure of IAPP”. Besides, the “effect on IAPP fibril morphology / density / aggregation (EM)” value with hIAPP 1–37 [2] was “fibrils formed were less numerous; also recorded: absence of fibrillar aggregates which could act as seeds”.
With FGAILS, in the experiment with hIAPP 1–37 [1] (48-hour incubation), the “effect on IAPP β-sheet formation / precipitation (CD)” value is “little effect on the ability of hIAPP (1–37) to form a β-sheet”. The “effect … of IAPP (CD)” value with hIAPP 1–37 [1] was “had no effect on the initial random structure of IAPP”. The “effect on IAPP fibril morphology / density / aggregation (EM)” value with hIAPP 1–37 [2] is recorded as “had no effect on the morphology of IAPP fibrillar aggregates”.
Consider SNNFGA, for which, in experiment [3], the “sedimentation assay: soluble hIAPP remaining after 24 hours, 10 fold excess of peptide” value is around 15%; the “sedimentation assay: soluble hIAPP remaining after 48 hours, 10 fold excess of peptide” value was around 25%; the “sedimentation assay: soluble hIAPP remaining after 72 hours, 10 fold excess of peptide” value was around 20%.
Take GAILSS: in experiment [3], the “sedimentation assay: soluble hIAPP remaining after 24 hours, 10 fold excess of peptide” value is above 80%; the “sedimentation assay: soluble hIAPP remaining after 48 hours, 10 fold excess of peptide” value was around 25%; the “sedimentation assay: soluble hIAPP remaining after 72 hours, 10 fold excess of peptide” value is around 20%.
As for NNFGAI, in experiment [3], the “molar excess of peptide needed to keep IAPP in random conformation (CD, 48 hours)” value is 20 fold molar excess.
